Experimental findings from US20100222280A1 (PROYECTO DE BIOMEDICINA CIMA S L, published 2010) are described below.

TGF-β1 raised in mice by acute liver damage (CCl4), sequence (P04202 279-390 limits assumed): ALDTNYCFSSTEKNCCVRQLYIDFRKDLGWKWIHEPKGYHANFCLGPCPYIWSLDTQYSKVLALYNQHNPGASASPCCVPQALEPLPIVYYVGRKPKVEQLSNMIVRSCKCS

One experiment deals with biotinylated TGF-β1 (Homo sapiens (Human), UniProt P01137 279-390, Biotinylated (site or sites not stated) for capture on streptavidin plates. The active cytokine is a disulfide-linked 25 kDa homodimer; one subunit is given.). Kind of experiment: phage display biopanning on biotinylated TGF-β1 on streptavidin plates; clones among 108 colonies after 3 cycles.
biotinylated TGF-β1, sequence (P01137 279-390 limits assumed, form in doubt): as the sequence (P04202 279-390 limits assumed) above, with S75A counted along it
Regarding RHLSHFKWLRSHGLD (15-aa peptide) [peptide identified by SEQ ID NO: 19], the No. colonies is 1 colonies.

For the molecule WHKYFLRRPLSVRTR (15-aa peptide) [peptide identified by SEQ ID NO: 11], the No. colonies stood at 4 colonies.

Molecule RFFTRFPWHYHASRL (15-aa peptide) [peptide identified by SEQ ID NO: 3] yielded a No. colonies of 41 colonies.

The molecule RLHGHRSHRFTHVAQ (15-aa peptide) [peptide identified by SEQ ID NO: 16] showed a No. colonies of 1 colonies.

For KRIWFIPRSSWYERA (15-aa peptide) [TGF-β1 inhibitor peptide P17 (SEQ ID NO: 17)], the No. colonies came out at 3 colonies.

DRRIFWWSLRSAPGA (15-aa peptide) [peptide identified by SEQ ID NO: 1]: the No. colonies was found to be 6 colonies.

Turning to DRRIFWWSNRSAPGA (15-aa peptide) [peptide identified by SEQ ID NO: 2], the No. colonies was 1 colonies.

In turn, RKWFLQHRRMPVSVL (15-aa peptide) [peptide identified by SEQ ID NO: 13] returned a No. colonies of 6 colonies.

The molecule GWITFHRRHHDRVLS (15-aa peptide) [peptide identified by SEQ ID NO: 15] came in with a No. colonies of 1 colonies.

RRWVRYPVHLHSPIV (15-aa peptide) [peptide identified by SEQ ID NO: 5] yielded a No. colonies of 1 colonies.

In the case of HVRLHHYLRHRSLPN (15-aa peptide) [peptide identified by SEQ ID NO: 21], the No. colonies was 1 colonies.

Turning to PPYHRFWRGHRHAVQ (15-aa peptide) [peptide identified by SEQ ID NO: 6], the No. colonies was determined as 12 colonies.

On to RRFHFHSRMVAVDNS (15-aa peptide) [peptide identified by SEQ ID NO: 20], for which the No. colonies was found to be 1 colonies.

Molecule SGRRHLHRHHIFSLP (15-aa peptide) [peptide identified by SEQ ID NO: 14] returned a No. colonies of 2 colonies.

WHKYFLRRPLSVGLG (15-aa peptide) [peptide identified by SEQ ID NO: 12] came in with a No. colonies of 1 colonies.

Molecule GWHSLLHSRYHRLAA (15-aa peptide) [peptide identified by SEQ ID NO: 9] yielded a No. colonies of 1 colonies.

For VPMALNHGVYVMVSS (15-aa peptide) [peptide identified by SEQ ID NO: 22], the No. colonies worked out at 1 colonies.

As for MPLSRYWWLFSHRPR (15-aa peptide) [peptide identified by SEQ ID NO: 18], the No. colonies was 1 colonies.

The molecule FVWVRFHRLPRQIYT (15-aa peptide) [peptide identified by SEQ ID NO: 10] displayed a No. colonies of 1 colonies.

WHWRHRIPLQLAAGR (15-aa peptide) [peptide identified by SEQ ID NO: 8] had a No. colonies of 2 colonies.

Molecule HRISHFAHRYLARLH (15-aa peptide) [peptide identified by SEQ ID NO: 7] returned a No. colonies of 2 colonies.

The molecule RLAHSHRHRSHVALT (15-aa peptide) [peptide identified by SEQ ID NO: 4] showed a No. colonies of 18 colonies.

Another experiment addresses TGF-β1 (Roche). Briefly: cell-based or functional assay.
RHLSHFKWLRSHGLD (15-aa peptide) [peptide identified by SEQ ID NO: 19]: the “% Inhibition (Mv-1-Lu cell line growth reestablishment, 3H-thymidine)” value was found to be 9.71%.

WHKYFLRRPLSVRTR (15-aa peptide) [peptide identified by SEQ ID NO: 11]: the “% Inhibition (Mv-1-Lu cell line growth reestablishment, 3H-thymidine)” value is 27.4%.

For RFFTRFPWHYHASRL (15-aa peptide) [peptide identified by SEQ ID NO: 3], the “% Inhibition (Mv-1-Lu cell line growth reestablishment, 3H-thymidine)” value was found to be 25.4%.

For RLHGHRSHRFTHVAQ (15-aa peptide) [peptide identified by SEQ ID NO: 16], the “% Inhibition (Mv-1-Lu cell line growth reestablishment, 3H-thymidine)” value was determined as 9.47%.

Regarding KRIWFIPRSSWYERA (15-aa peptide) [TGF-β1 inhibitor peptide P17 (SEQ ID NO: 17)], the “% Inhibition (Mv-1-Lu cell line growth reestablishment, 3H-thymidine)” value is 38.9%.

DRRIFWWSLRSAPGA (15-aa peptide) [peptide identified by SEQ ID NO: 1]: the “% Inhibition (Mv-1-Lu cell line growth reestablishment, 3H-thymidine)” value is 3.33%.

Regarding DRRIFWWSNRSAPGA (15-aa peptide) [peptide identified by SEQ ID NO: 2], the “% Inhibition (Mv-1-Lu cell line growth reestablishment, 3H-thymidine)” value is -0.96%.

Regarding RKWFLQHRRMPVSVL (15-aa peptide) [peptide identified by SEQ ID NO: 13], the “% Inhibition (Mv-1-Lu cell line growth reestablishment, 3H-thymidine)” value came to 18%.

Consider GWITFHRRHHDRVLS (15-aa peptide) [peptide identified by SEQ ID NO: 15], for which the “% Inhibition (Mv-1-Lu cell line growth reestablishment, 3H-thymidine)” value was 13.4%.

Consider RRWVRYPVHLHSPIV (15-aa peptide) [peptide identified by SEQ ID NO: 5], for which the “% Inhibition (Mv-1-Lu cell line growth reestablishment, 3H-thymidine)” value came out at 15.8%.

HVRLHHYLRHRSLPN (15-aa peptide) [peptide identified by SEQ ID NO: 21]: the “% Inhibition (Mv-1-Lu cell line growth reestablishment, 3H-thymidine)” value turned out to be 13.4%.

Take PPYHRFWRGHRHAVQ (15-aa peptide) [peptide identified by SEQ ID NO: 6]: the “% Inhibition (Mv-1-Lu cell line growth reestablishment, 3H-thymidine)” value is 12.8%.

Consider RRFHFHSRMVAVDNS (15-aa peptide) [peptide identified by SEQ ID NO: 20], for which the “% Inhibition (Mv-1-Lu cell line growth reestablishment, 3H-thymidine)” value amounted to 6.16%.

As to SGRRHLHRHHIFSLP (15-aa peptide) [peptide identified by SEQ ID NO: 14], the “% Inhibition (Mv-1-Lu cell line growth reestablishment, 3H-thymidine)” value was 3.62%.

In the case of TSLDASIIWAMMQN [peptide identified as P144 in the Spanish patent application ES 2146552 A1 (SEQ ID NO: 51)], the “% Inhibition (Mv-1-Lu cell line growth reestablishment, 3H-thymidine)” value is 7.26%.

As to WHKYFLRRPLSVGLG (15-aa peptide) [peptide identified by SEQ ID NO: 12], the “% Inhibition (Mv-1-Lu cell line growth reestablishment, 3H-thymidine)” value was found to be 10.7%.

For the molecule GWHSLLHSRYHRLAA (15-aa peptide) [peptide identified by SEQ ID NO: 9], the “% Inhibition (Mv-1-Lu cell line growth reestablishment, 3H-thymidine)” value was determined as 4.98%.

As for VPMALNHGVYVMVSS (15-aa peptide) [peptide identified by SEQ ID NO: 22], the “% Inhibition (Mv-1-Lu cell line growth reestablishment, 3H-thymidine)” value was 4.13%.

With MPLSRYWWLFSHRPR (15-aa peptide) [peptide identified by SEQ ID NO: 18], the “% Inhibition (Mv-1-Lu cell line growth reestablishment, 3H-thymidine)” value worked out at 21.3%.

For FVWVRFHRLPRQIYT (15-aa peptide) [peptide identified by SEQ ID NO: 10], the “% Inhibition (Mv-1-Lu cell line growth reestablishment, 3H-thymidine)” value was -4.58%.

As for WHWRHRIPLQLAAGR (15-aa peptide) [peptide identified by SEQ ID NO: 8], the “% Inhibition (Mv-1-Lu cell line growth reestablishment, 3H-thymidine)” value stood at 15.7%.

HRISHFAHRYLARLH (15-aa peptide) [peptide identified by SEQ ID NO: 7]: the “% Inhibition (Mv-1-Lu cell line growth reestablishment, 3H-thymidine)” value was -25%.

As for RLAHSHRHRSHVALT (15-aa peptide) [peptide identified by SEQ ID NO: 4], the “% Inhibition (Mv-1-Lu cell line growth reestablishment, 3H-thymidine)” value is 5.53%.

Another experiment has as its target TGF-β1 raised in mice by acute liver damage (CCl4) (mouse, UniProt P04202 279-390, limits assumed). Kind of experiment: cell-based or functional assay.
As for RHLSHFKWLRSHGLD (15-aa peptide) [peptide identified by SEQ ID NO: 19], the “% Inhibition (type I collagen mRNA induction, acute liver damage model in mice)” value turned out to be 12.1%.

As for WHKYFLRRPLSVRTR (15-aa peptide) [peptide identified by SEQ ID NO: 11], the “% Inhibition (type I collagen mRNA induction, acute liver damage model in mice)” value came out at 39.3%.

For RFFTRFPWHYHASRL (15-aa peptide) [peptide identified by SEQ ID NO: 3], the “% Inhibition (type I collagen mRNA induction, acute liver damage model in mice)” value came out at 2.09%.

Regarding KRIWFIPRSSWYERA (15-aa peptide) [TGF-β1 inhibitor peptide P17 (SEQ ID NO: 17)], the “% Inhibition (type I collagen mRNA induction, acute liver damage model in mice)” value was 93.1%.

Turning to DRRIFWWSLRSAPGA (15-aa peptide) [peptide identified by SEQ ID NO: 1], the “% Inhibition (type I collagen mRNA induction, acute liver damage model in mice)” value amounted to 0.69%.

For DRRIFWWSNRSAPGA (15-aa peptide) [peptide identified by SEQ ID NO: 2], the “% Inhibition (type I collagen mRNA induction, acute liver damage model in mice)” value came out at 36.6%.

With RKWFLQHRRMPVSVL (15-aa peptide) [peptide identified by SEQ ID NO: 13], the “% Inhibition (type I collagen mRNA induction, acute liver damage model in mice)” value is 32.7%.

For GWITFHRRHHDRVLS (15-aa peptide) [peptide identified by SEQ ID NO: 15], the “% Inhibition (type I collagen mRNA induction, acute liver damage model in mice)” value came out at 14.3%.

Take PPYHRFWRGHRHAVQ (15-aa peptide) [peptide identified by SEQ ID NO: 6]: the “% Inhibition (type I collagen mRNA induction, acute liver damage model in mice)” value is 74.9%.

Consider RRFHFHSRMVAVDNS (15-aa peptide) [peptide identified by SEQ ID NO: 20], for which the “% Inhibition (type I collagen mRNA induction, acute liver damage model in mice)” value came out at 1.41%.

For SGRRHLHRHHIFSLP (15-aa peptide) [peptide identified by SEQ ID NO: 14], the “% Inhibition (type I collagen mRNA induction, acute liver damage model in mice)” value was 49.8%.

TSLDASIIWAMMQN [peptide identified as P144 in the Spanish patent application ES 2146552 A1 (SEQ ID NO: 51)]: the “% Inhibition (type I collagen mRNA induction, acute liver damage model in mice)” value was -3.51%.

GWHSLLHSRYHRLAA (15-aa peptide) [peptide identified by SEQ ID NO: 9]: the “% Inhibition (type I collagen mRNA induction, acute liver damage model in mice)” value was determined as 26.6%.

Turning to RLAHSHRHRSHVALT (15-aa peptide) [peptide identified by SEQ ID NO: 4], the “% Inhibition (type I collagen mRNA induction, acute liver damage model in mice)” value is 51.3%.

The target of the next experiment is TGF-β1 (Roche). Kind of experiment: cell-based or functional assay. The source holds these as a separate data set.
TGF-β1 (Roche), sequence (P01137 279-390): as the sequence (P04202 279-390 limits assumed) above, with S75A counted along it
With WFIPRSSWYERA [truncated peptide SEQ ID NO: 29 (T6)], the “% Inhibition (Mv-1-Lu cell line growth reestablishment)” value is 2.7%.

As for PRSSWYERA [truncated peptide SEQ ID NO: 32 (T9)], the “% Inhibition (Mv-1-Lu cell line growth reestablishment)” value was determined as 3.8%.

For the molecule IWFIPRSSWYERA [truncated peptide SEQ ID NO: 26 (T3)], the “% Inhibition (Mv-1-Lu cell line growth reestablishment)” value stood at 4.5%.

With KRIWFIPRSSWYERA (15-aa peptide) [TGF-β1 inhibitor peptide P17 (SEQ ID NO: 17)], the “% Inhibition (Mv-1-Lu cell line growth reestablishment)” value was 28.5%.

Take RIWFIPRSSWYERA [truncated peptide SEQ ID NO: 24 (T1)]: the “% Inhibition (Mv-1-Lu cell line growth reestablishment)” value stood at 9.4%.

KRIWFIPRSSWYER [truncated peptide SEQ ID NO: 33 (T10)]: the “% Inhibition (Mv-1-Lu cell line growth reestablishment)” value is 31.4%.

In the case of FIPRSSWYERA [truncated peptide SEQ ID NO: 30 (T7)], the “% Inhibition (Mv-1-Lu cell line growth reestablishment)” value was -0.3%.

For RIWFIPRSSWYER [truncated peptide SEQ ID NO: 25 (T2)], the “% Inhibition (Mv-1-Lu cell line growth reestablishment)” value amounted to 6.2%.

KRIWFIPRSS [truncated peptide SEQ ID NO: 35 (T12)]: the “% Inhibition (Mv-1-Lu cell line growth reestablishment)” value was 6%.

For the molecule IPRSSWYERA [truncated peptide SEQ ID NO: 31 (T8)], the “% Inhibition (Mv-1-Lu cell line growth reestablishment)” value is 3.4%.

On to KRIWFIPRS [truncated peptide SEQ ID NO: 36 (T13)], for which the “% Inhibition (Mv-1-Lu cell line growth reestablishment)” value was 6.2%.

As for IWFIPRSSWYE [truncated peptide SEQ ID NO: 27 (T4)], the “% Inhibition (Mv-1-Lu cell line growth reestablishment)” value came to 1.4%.

Consider KRIWFIPRSSWY [truncated peptide SEQ ID NO: 34 (T11)], for which the “% Inhibition (Mv-1-Lu cell line growth reestablishment)” value was found to be 34.4%.

With WFIPRSSWY [truncated peptide SEQ ID NO: 28 (T5)], the “% Inhibition (Mv-1-Lu cell line growth reestablishment)” value turned out to be 3.1%.
